Measurements published in patent publication US20120087858A1 (AbbVie / Abbott, published 2012).

Experiments:
[1] = molecular target: T1, Recombinant Human TNF-α/TNFSF1A (human, UniProt P01375 77-233); experiment: cell-based or functional assay
Recombinant Human β-NGF [2] = molecular target: T2, Recombinant Human β-NGF (human, UniProt P01138 122-241); experiment: Biacore SPR
T2 construct: Bought reagent; also called huNGF
Protocol: (§1) The BIACORE assay (Biacore, Inc, Piscataway, N.J.) determines the affinity of antibodies or DVD-Ig with kinetic measurements of on-rate and off-rate constants. Binding of antibodies or DVD-Ig to a target antigen (for example, a purified recombinant target antigen) is determined by surface plasmon resonance-based measurements with a Biacore® 1000 or 3000 instrument (Biacore® AB, Uppsala, Sweden) using running HBS-EP (10 mM HEPES [pH 7.4], 150 mM NaCl, 3 mM EDTA, and 0.005% surfactant P20) at 25° C. All chemicals are obtained from Biacore® AB (Uppsala, Sweden) or otherwise from a different source as described in the text. For example, approximately 5000 RU of goat anti-mouse IgG, (Fcγ), fragment specific polyclonal antibody (Pierce Biotechnology Inc, Rockford, Ill.) diluted in 10 mM sodium acetate (pH 4.5) is directly immobilized across a CMS research grade biosensor chip using a standard amine coupling kit according to manufacturer's instructions and procedures at 25 μg/ml. Unreacted moieties on the biosensor surface are blocked with ethanolamine. Modified carboxymethyl dextran surface in flowcell 2 and 4 is used as a reaction surface. Unmodified carboxymethyl dextran without goat anti-mouse IgG in flow cell 1 and 3 is used as the reference surface. For kinetic analysis, rate equations derived from the 1:1 Langmuir binding model are fitted simultaneously to association and dissociation phases of all eight injections (using global fit analysis) with the use of Biaevaluation 4.0.1 software. Purified antibodies or DVD-Ig are diluted in HEPES-buffered saline for capture across goat anti-mouse IgG specific reaction surfaces. Antibodies or DVD-Ig to be captured as a ligand (25 μg/ml) are injected over reaction matrices at a flow rate of 5 μl/min. The association and dissociation rate constants, kₒₙ (M⁻¹s⁻) and koff(s⁻¹) are determined under a continuous flow rate of 25 μl/min. Rate constants are derived by making kinetic binding measurements at different antigen concentrations ranging from 10-200 nM. The equilibrium dissociation constant (M) of the reaction between antibodies or DVD-Igs and the target antigen is then calculated from the kinetic rate constants by the following formula: KD=koff/kₒₙ. Binding is recorded as a function of time and kinetic rate constants are calculated.

[3] = molecular target: T1, Recombinant Human TNF-α/TNFSF1A; experiment: Biacore SPR
Protocol: as §1

Recombinant Human β-NGF [4] = molecular target: T2, Recombinant Human β-NGF; experiment: cell-based or functional assay

T1 sequence (P01375 77-233 limits assumed): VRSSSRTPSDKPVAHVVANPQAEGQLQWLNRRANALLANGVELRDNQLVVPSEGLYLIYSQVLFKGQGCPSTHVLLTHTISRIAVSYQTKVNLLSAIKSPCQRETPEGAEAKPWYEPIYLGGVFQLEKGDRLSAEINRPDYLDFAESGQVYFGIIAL
T2 sequence (P01138 122-241 limits assumed): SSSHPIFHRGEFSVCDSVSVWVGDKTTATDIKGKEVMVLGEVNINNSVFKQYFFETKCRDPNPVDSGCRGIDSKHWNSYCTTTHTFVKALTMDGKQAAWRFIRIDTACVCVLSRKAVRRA

B1: DVD1520 (bispecific antibody, human IgG1, kappa)
heavy: not shown
light: DIQMTQSPSSLSASVGDRVTITCRASQSISNNLNWYQQKPGKAPKLLIYYTSRFHSGVPSRFSGSGSGTDFTFTISSLQPEDIATYYCQQEHTLPYTFGQGTKLEIKRTVAAPDIQMTQSPSSLSASVGDRVTITCRASQGIRIDLGWYQQKPGKAPKRLIYAASTLQSGVPSRFSGSGSGTEFIFTISSLQPEDFASYYCLQHKSYPLTFGGGTKVEIKRTVAAPSVFIFPPSDEQLKSGTASVVCLLNNFYPREAKVQWKVDNALQSGNSQESVTEQDSKDSTYSLSSTLTLSKADYEKHKVYACEVTHQGLSSPVTKSFNRGEC
notes: DVD-Ig; linker set 3; also called DVD1520H; DVD1520L
TNFα Neutralization Assay EC50 (L929 cells) [1]: 7.21 nM
Kd (Recombinant Human β-NGF [2]): 0.0034 nM
koff (Recombinant Human β-NGF [2]): 9.3e-06 s⁻¹
kon (Recombinant Human β-NGF [2]): 2.7e+06 M⁻¹ s⁻¹
Kd [3]: 0.0038 nM
koff [3]: 4.4e-06 s⁻¹
kon [3]: 1.1e+06 M⁻¹ s⁻¹
NGF Inhibition Assay EC50 (TF-1 cell proliferation) (Recombinant Human β-NGF [4]): 0.025 nM
